Measurements: publication PMC6240786

How the values were obtained:
[1] = molecular target: Streptomyces clavuligerus cucumene synthase, wild-type (Streptomyces clavuligerus); assay: crystal structure
[2] = molecular target: T181N cucumene synthase (Streptomyces clavuligerus); assay: crystal structure

stoichiometry N [1] | stoichiometry N [2] | Substance
2 |  | Streptomyces clavuligerus cucumene synthase, wild-type (enzyme)
 | 2 | T181N cucumene synthase (enzyme)
